Results as given in patent US20230257447A1 (published 2023).

T1: CMV phosphoprotein pp65 (SEQ 34) peptide on HLA-A*11:01 (human)
T1 peptide: ATVQGQNLK

B1: C44 (TCR, V domains shown)
Valpha: AQTVTQSQPEMSVQEAETVTLSCTYDTSESDYYLFWYKQPPSRQMILVIRQEAYKQQNATENRFSVNFQKAAKSFSLKISDSQLGDAAMYFCAYRAFYTGANSKLTFGKGITLSVRP
Vbeta: DAGVTQSPTHLIKTRGQQVTLRCSPKSGHDTVSWYQQALGQGPQFIFQYYEEEERQRGNFPDRFSGHQFPNYSSELNVNALLLGDSALYLCASSFFRGEGNQPQHFGDGTRLSIL
B2: C45 (TCR, V domains shown)
Valpha: DQQVKQNSPSLSVQEGRISILNCDYTNSMFDYFLWYKKYPAEGPTFLISISSIKDKNEDGRFTVFLNKSAKHLSLHIVPSQPGDSAVYFCAASAWNTGNQFYFGTGTSLTVIP
Vbeta: KAGVTQTPRYLIKTRGQQVTLSCSPISGHRSVSWYQQTPGQGLQFLFEYFSETQRNKGNFPGRFSGRQFSNSRSEMNVSTLELGDSALYLCASSLAGYKQETQYFGPGTRLLVL

Molecular target: T1, CMV phosphoprotein pp65 (SEQ 34) …
Test: multimer staining

Binder | binding result
B1 | recognises
B2 | recognises
